Data as given in PMC4714512.

target: Human histone H3.5 (human) (UniProt Q6NXT2); test: native gel or EMSA; nucleosomes reconstituted with 146 base-pair human alpha-satellite DNA by salt dialysis from 2 M KCl, heated at 55 °C for 2 h, purified by preparative non-denaturing PAGE; analysed by non-denaturing 6 % PAGE and 18 % SDS-PAGE (histone composition)

Stoichiometry N, 1:
Human histone H2B (from UniProt P06899 1-126) (natural protein)
Human histone H4 (from UniProt P62805 1-103) (natural protein)
Human histone H2A (from UniProt P04908 1-130) (natural protein)
